The test addresses T1, human GM-CSFRα, full length on cells (human, UniProt P15509 23-400).
T1 sequence: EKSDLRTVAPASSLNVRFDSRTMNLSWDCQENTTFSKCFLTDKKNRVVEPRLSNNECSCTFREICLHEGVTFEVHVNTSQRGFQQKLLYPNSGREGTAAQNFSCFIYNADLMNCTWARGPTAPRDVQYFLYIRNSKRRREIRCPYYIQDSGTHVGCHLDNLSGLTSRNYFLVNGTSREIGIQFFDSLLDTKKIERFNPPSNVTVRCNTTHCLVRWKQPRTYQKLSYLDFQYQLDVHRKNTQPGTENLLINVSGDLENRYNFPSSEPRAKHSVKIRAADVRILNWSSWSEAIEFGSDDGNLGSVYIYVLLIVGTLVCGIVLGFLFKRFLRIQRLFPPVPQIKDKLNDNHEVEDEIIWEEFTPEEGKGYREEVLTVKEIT
Description: cell-based or functional assay.

The values that follow come from patent publication US20230002496A1 (STAIDSON BEIJING BIOPHARMACEUTICALS, published 2023).

Where a chain is given by its changes, count along the chain named.

B1: E35-scFv HT28P (scFv, V domains shown)
VH: QMQLVQSGAEVKKPGASVKVSCKVSGYPLTELSIHWVRQAPGKGLEWMGGFDPEDGETIYAQKFQGRVTMTGDTSTDTAYLELSSLRSEDTALYYCATGRYTSLATTYGFDYWGQGTLVTVSS
VL: EIVMTQSPATLSLSPGERATLSCRASQSVSSYLAWYQQKPGQAPRLLIYGASSRATGIPDRFSGSGSGTDFTLTISRLEPEDFAVYYCQQYDNWPYTFGQGTKLEIK
Regarding B1, the “IC50, TF-1 cell proliferation” value turned out to be 0.093 µg/mL.

B2: E35-scFv LQ27V (scFv, V domains shown)
VH: B1 VH with P28T
VL: B1 VL with Q27V
Consider B2, for which the “IC50, TF-1 cell proliferation” value was 0.12 µg/mL.

B3: E35-scFv LS31Q (scFv, V domains shown)
VH: B1 VH with P28T
VL: B1 VL with S31Q
In the case of B3, the “IC50, TF-1 cell proliferation” value was found to be 0.117 µg/mL.

B4: E35-scFv LS26Q (scFv, V domains shown)
VH: B1 VH with P28T
VL: B1 VL with S26Q
On to B4, for which the “IC50, TF-1 cell proliferation” value is 0.075 µg/mL.

B5: E35-scFv LS26N (scFv, V domains shown)
VH: B1 VH with P28T
VL: B1 VL with S26N
In the case of B5, the “IC50, TF-1 cell proliferation” value amounted to 0.054 µg/mL.

B6: E35-scFv LS31R (scFv, V domains shown)
VH: B1 VH with P28T
VL: B1 VL with S31R
On to B6, for which the “IC50, TF-1 cell proliferation” value worked out at 0.069 µg/mL.

B7: E35-scFv LQ27Y (scFv, V domains shown)
VH: B1 VH with P28T
VL: B1 VL with Q27Y
On to B7, for which the “IC50, TF-1 cell proliferation” value worked out at 0.065 µg/mL.

B8: E35-scFv LQ27R (scFv, V domains shown)
VH: B1 VH with P28T
VL: B1 VL with Q27R
Turning to B8, the “IC50, TF-1 cell proliferation” value was 0.117 µg/mL.

B9: E35-scFv LS26R (scFv, V domains shown)
VH: B1 VH with P28T
VL: B1 VL with S26R
Turning to B9, the “IC50, TF-1 cell proliferation” value amounted to 0.072 µg/mL.

B10: E35-scFv LQ27E (scFv, V domains shown)
VH: B1 VH with P28T
VL: B1 VL with Q27E
For B10, the “IC50, TF-1 cell proliferation” value was found to be 0.135 µg/mL.

B11: E35-scFv LS26G (scFv, V domains shown)
VH: B1 VH with P28T
VL: B1 VL with S26G
For B11, the “IC50, TF-1 cell proliferation” value was determined as 0.078 µg/mL.

B12: E35-scFv LS31A (scFv, V domains shown)
VH: B1 VH with P28T
VL: B1 VL with S31A
On to B12, for which the “IC50, TF-1 cell proliferation” value worked out at 0.078 µg/mL.

B13: E35-scFv HT28G (scFv, V domains shown)
VH: B1 VH with P28G
VL: B1 VL
For B13, the “IC50, TF-1 cell proliferation” value worked out at 0.16 µg/mL.

B14: E35-scFv HT28S (scFv, V domains shown)
VH: B1 VH with P28S
VL: B1 VL
As to B14, the “IC50, TF-1 cell proliferation” value was found to be 0.11 µg/mL.

B15: E35-scFv LS26L (scFv, V domains shown)
VH: B1 VH with P28T
VL: B1 VL with S26L
Take B15: the “IC50, TF-1 cell proliferation” value was 0.044 µg/mL.

B16: E35-scFv LQ27L (scFv, V domains shown)
VH: B1 VH with P28T
VL: B1 VL with Q27L
With B16, the “IC50, TF-1 cell proliferation” value amounted to 0.128 µg/mL.

B17: E35-scFv LS31H (scFv, V domains shown)
VH: B1 VH with P28T
VL: B1 VL with S31H
For B17, the “IC50, TF-1 cell proliferation” value came out at 0.106 µg/mL.

B18: E35-scFv HT28W (scFv, V domains shown)
VH: B1 VH with P28W
VL: B1 VL
Turning to B18, the “IC50, TF-1 cell proliferation” value was 0.11 µg/mL.

B19: E35-scFv HT28A (scFv, V domains shown)
VH: B1 VH with P28A
VL: B1 VL
On to B19, for which the “IC50, TF-1 cell proliferation” value was found to be 0.13 µg/mL.

B20: E35-scFv HT28N (scFv, V domains shown)
VH: B1 VH with P28N
VL: B1 VL
As to B20, the “IC50, TF-1 cell proliferation” value is 0.17 µg/mL.

B21: E35-scFv LQ27F (scFv, V domains shown)
VH: B1 VH with P28T
VL: B1 VL with Q27F
As for B21, the “IC50, TF-1 cell proliferation” value was 0.113 µg/mL.

B22: E35-scFv LS26C (scFv, V domains shown)
VH: B1 VH with P28T
VL: B1 VL with S26C
B22: the “IC50, TF-1 cell proliferation” value is 0.114 µg/mL.

B23: E35-scFv LQ27C (scFv, V domains shown)
VH: B1 VH with P28T
VL: B1 VL with Q27C
As to B23, the “IC50, TF-1 cell proliferation” value is 0.142 µg/mL.

B24: E35-scFv LS26H (scFv, V domains shown)
VH: B1 VH with P28T
VL: B1 VL with S26H
In the case of B24, the “IC50, TF-1 cell proliferation” value amounted to 0.089 µg/mL.

B25: E35-scFv LQ27I (scFv, V domains shown)
VH: B1 VH with P28T
VL: B1 VL with Q27I
Take B25: the “IC50, TF-1 cell proliferation” value came to 0.105 µg/mL.

B26: E35-scFv LS31M (scFv, V domains shown)
VH: B1 VH with P28T
VL: B1 VL with S31M
With B26, the “IC50, TF-1 cell proliferation” value came to 0.156 µg/mL.

B27: E35-scFv LQ27T (scFv, V domains shown)
VH: B1 VH with P28T
VL: B1 VL with Q27T
Take B27: the “IC50, TF-1 cell proliferation” value was determined as 0.113 µg/mL.

B28: E35-scFv LS26I (scFv, V domains shown)
VH: B1 VH with P28T
VL: B1 VL with S26I
As for B28, the “IC50, TF-1 cell proliferation” value was 0.073 µg/mL.

B29: E35-scFv LS26K (scFv, V domains shown)
VH: B1 VH with P28T
VL: B1 VL with S26K
On to B29, for which the “IC50, TF-1 cell proliferation” value came to 0.069 µg/mL.

B30: E35-scFv LQ27P (scFv, V domains shown)
VH: B1 VH with P28T
VL: B1 VL with Q27P
With B30, the “IC50, TF-1 cell proliferation” value is 0.097 µg/mL.

B31: E35-scFv LS31T (scFv, V domains shown)
VH: B1 VH with P28T
VL: B1 VL with S31T
Regarding B31, the “IC50, TF-1 cell proliferation” value came to 0.06 µg/mL.

B32: E35-scFv HT28C (scFv, V domains shown)
VH: B1 VH with P28C
VL: B1 VL
For the molecule B32, the “IC50, TF-1 cell proliferation” value was found to be 0.12 µg/mL.

B33: E35-scFv LS31P (scFv, V domains shown)
VH: B1 VH with P28T
VL: B1 VL with S31P
B33: the “IC50, TF-1 cell proliferation” value was found to be 0.139 µg/mL.

B34: E35-scFv HT28K (scFv, V domains shown)
VH: B1 VH with P28K
VL: B1 VL
Consider B34, for which the “IC50, TF-1 cell proliferation” value stood at 0.217 µg/mL.

B35: E35-scFv HT28M (scFv, V domains shown)
VH: B1 VH with P28M
VL: B1 VL
Consider B35, for which the “IC50, TF-1 cell proliferation” value was 0.11 µg/mL.

B36: E35-scFv LS26T (scFv, V domains shown)
VH: B1 VH with P28T
VL: B1 VL with S26T
In the case of B36, the “IC50, TF-1 cell proliferation” value was found to be 0.081 µg/mL.

B37: E35-scFv LQ27A (scFv, V domains shown)
VH: B1 VH with P28T
VL: B1 VL with Q27A
On to B37, for which the “IC50, TF-1 cell proliferation” value was 0.104 µg/mL.

B38: E35-scFv LS26M (scFv, V domains shown)
VH: B1 VH with P28T
VL: B1 VL with S26M
Take B38: the “IC50, TF-1 cell proliferation” value came out at 0.089 µg/mL.

B39: E35-scFv LS26A (scFv, V domains shown)
VH: B1 VH with P28T
VL: B1 VL with S26A
Take B39: the “IC50, TF-1 cell proliferation” value was found to be 0.062 µg/mL.

B40: E35-scFv HT28L (scFv, V domains shown)
VH: B1 VH with P28L
VL: B1 VL
As to B40, the “IC50, TF-1 cell proliferation” value was 0.1 µg/mL.

B41: E35-scFv LQ27S (scFv, V domains shown)
VH: B1 VH with P28T
VL: B1 VL with Q27S
B41: the “IC50, TF-1 cell proliferation” value was 0.138 µg/mL.
